Here are results for 3 compounds from patent publication US20230256114A1, “NOVEL MAYTANSINOIDS AS ADC PAYLOADS AND THEIR USE FOR THE TREATMENT OF CANCER” (priority 2020, published 2023).

The nature of data set [1]: Size exclusion chromatography (SEC) of ADC monomer and aggregates. In kind it is physicochemical. The note with it: anti-Trop-2 ADC with the named payload, Lysine conjugation, DAR 3.9. Background: SEC sorts molecules by how far they enter the pores of the column.
The subject of data set [2] is MDA-MB-468, SK-BR-3, Colo205, and A549 cells. Nature of the data set: In vitro cytotoxicity assay of ADCs and free payloads (FIG. 20). In kind it is cell-based. The note with it: all tested cells. How it is done: Anti-Trop-2 ADCs were conjugated with different DM1 derivatives with similar DARs, and were tested ahead to ahead with anti-Trop-2-SMCC-DM1 and anti-Trop-2-vc-MMAE against BxPC-3 pancreatic cancer cells representing high Trop-2 expression, MDA-MB-468 breast cancer cells, N87 gastric cancer cells, and SK-BR-3 […] cancer cells representing moderate Trop-2 expression, Colo205 colon cancer cells representing low Trop-2 expression, and A549 lung cancer cells and MDA-MB-231 breast cancer cells with undetectable level of Trop-2. In vitro cytotoxicity assay was performed. Briefly, all cell lines were cultured in a suitable culture medium at 37° C. in a humidified incubator atmosphere of 5% CO2. Cells were plated in 96-well flat bottom plates. Cell seeding number ranged from 500 cells//100 ul/well to 6,000 cells/100 μl/well. Cells were allowed to adhere overnight at 37° C. in a humidified atmosphere of 5% CO2. ADCs were prepared from stock solution and diluted into appropriated working concentration 24 hours after cell seeding. […] Cell Counting Kit-8 solution (Dojindo China Co., Ltd, lot #PL701) was added to the wells for 1-4 hours at 37° C. and the absorbance at 450 nm was measured using a Microplate Reader (SpectraMax M5, Molecular Devices) and SoftMax Pro5.4.1 software. Dose-response curves were generated and IC50 was calculated using GraphPad Prism 7 three-parameter curve fitting. […]

Data set [3] can be described thus: Size exclusion chromatography (SEC) of ADC monomer and aggregates. The data set is classed as physicochemical. Particulars: for Aggregation rate (%): anti-Trop-2 ADC with the named payload, Cysteine conjugation. As to the method:
Some embodiments of the invention relate to DM1s linked to antibodies via a non-cleavable linker. In this example, anti-Trop-2 antibody was reduced by adding antibody to TCEP (Tris (2-carboxyethyl) phosphine) dissolved in a pH-adjusted PBS EDTA buffer. The antibody/TCEP solution was incubated at 37° C. for 2-3 hrs. The reduced antibodies were buffer exchanged into conjugation reaction buffer. The BI-P203 payload dissolved in DMSO was added to a solution of reduced anti-Trop-2 monoclonal antibody at payload/antibody ratio of 7-30:1 in order to achieve different drug to antibody ratios (DARs). The payload/antibody solution was incubated for 1-2 hr at 20° C. while the reduced antibody was conjugated to BI-P203 payload via the maleimide group. After conjugation was completed, the reaction mixture was desalted and concentrated to yield anti-Trop-2-DM1 ADCs. The biochemical properties of the resulting ADCs were characterized using size-exclusion chromatography high pressure liquid chromatography (SEC-HPLC) to determine purity and aggregation content, and by using hydrophobic interaction chromatography HPLC (HIC-HPLC) to confirm drug loading (DAR). The conjugation procedure is illustrated in FIG. 12. The final ADC products are comprised of four or six or seven DM1-linker molecules. The cysteine conjugation method used in the conjugation process produces more homogenous ADCs compared to lysine conjugation method.

Data set [4] is described as follows: Solubility of payloads and ADCs (comparison in words). The note with it: inferred from Table 2. As to the method: The lipophilicity and aggregation rate of the ADCs of the present invention were characterized. The most commonly used measure of lipophilicity is LogP, which is the partition coefficient of a molecule between aqueous and lipophilic phases, usually octanol and water. […] In this experiment, the LogP of anti-Trop-2 BI-P203 and anti-Trop-2-SMCC-DM1 was calculated using ChemDraw software. Size exclusion chromatography (SEC) was used to characterize the ADC monomer and their aggregates.

Data set [5] deals with MDA-MB-468 breast cancer cells. Nature of the data set: In vitro cytotoxicity assay (Cell Counting Kit-8, 72 hours). The data set is classed as cell-based, human. Particulars: FIG. 21. How it is done: Anti-Trop-2 ADCs were conjugated with different DM1 derivatives with similar DARs, and were tested ahead to ahead with anti-Trop-2-SMCC-DM1 and anti-Trop-2-vc-MMAE against BxPC-3 pancreatic cancer cells representing high Trop-2 expression, MDA-MB-468 breast cancer cells, N87 gastric cancer cells, and SK-BR-3 […] cancer cells representing moderate Trop-2 expression, Colo205 colon cancer cells representing low Trop-2 expression, and A549 lung cancer cells and MDA-MB-231 breast cancer cells with undetectable level of Trop-2. In vitro cytotoxicity assay was performed. Briefly, all cell lines were cultured in a suitable culture medium at 37° C. in a humidified incubator atmosphere of 5% CO2. Cells were plated in 96-well flat bottom plates. Cell seeding number ranged from 500 cells//100 ul/well to 6,000 cells/100 μl/well. Cells were allowed to adhere overnight at 37° C. in a humidified atmosphere of 5% CO2. ADCs were prepared from stock solution and diluted into appropriated working concentration 24 hours after cell seeding. […] Cell Counting Kit-8 solution (Dojindo China Co., Ltd, lot #PL701) was added to the wells for 1-4 hours at 37° C. and the absorbance at 450 nm was measured using a Microplate Reader (SpectraMax M5, Molecular Devices) and SoftMax Pro5.4.1 software. Dose-response curves were generated and IC50 was calculated using GraphPad Prism 7 three-parameter curve fitting.
Background: Tetrazolium assays rely on reduction of a dye to a coloured formazan, in cell work by metabolically active cells.

Take `COc1cc2cc(c1Cl)N(C)C(=O)C[C@H](OC(=O)[C@H](C)N(C)C(=O)CCSC1CC(=O)N(CC3CCC(C(=O)ON4C(=O)CCC4=O)CC3)C1=O)[C@]1(C)O[C@H]1[C@H](C)[C@@H]1C[C@@](O)(NC(=O)O1)[C@H](OC)/C=C/C=C(\C)C2` (stereo partly drawn) [SMCC-DM1]: the “Aggregation rate (%)” value in data set [1] came to 3.6%.
`COc1cc2cc(c1Cl)N(C)C(=O)C[C@H](OC(=O)[C@H](C)N(C)C(=O)COCCn1cc(COCCOCCOCCNC(=O)CCN3C(=O)C=CC3=O)nn1)C1(C)O[C@H]1[C@H](C)[C@@H]1C[C@@](O)(NC(=O)O1)C(OC)/C=C/C=C(\C)C2` (stereo partly drawn) [BI-P209]: the “in vitro cytotoxic potency of the free payload compared with free BI-P203” value in data set [2] is “slightly more potent than free BI-P203”. In addition, the “Aggregation rate (%)” value in data set [3] (DAR 6.2) is 4.96%.
On to `COc1cc2cc(c1Cl)N(C)C(=O)C[C@H](OC(=O)[C@H](C)N(C)C(=O)CCOCCn1cc(COCCOCCOCCOCCNC(=O)CCN3C(=O)C=CC3=O)nn1)[C@@]1(C)O[C@H]1[C@H](C)[C@@H]1C[C@@](O)(NC(=O)O1)C(OC)/C=C/C=C(\C)C2` (stereo partly drawn) [BI-P203], for which the “solubility of payload compared to SMCC-DM1 payload” value in data set [4] is on record as “increased solubility”. The “aggregation rate compared to SMCC-DM1 payload” value in data set [3] (ADCs of the payloads) is listed as “decreased aggregation rate”. Besides, the “Aggregation rate (%)” value stood at 0.33% in data set [3] (DAR 3.5), 1.0% in data set [3] (DAR 6.2) and 2.0% in data set [3] (DAR 7.0). The “in vitro activity of the free payload compared with free SMCC-DM1 payload” value in data set [5] is “less activity than that of free SCMM-DM1 payload”.
